From patent US20170305994A1
Values joined by “and” are separate entries in the source; they are usually repeats but may differ in a detail not shown here. Equal values may be shown once. Read-outs that look alike come from different tables or passages of the source. Blank lines part the entries; values can stand above or below the substance they belong to.

Key:
[1] = molecular target: T1, human DR3 (full length, on cells) (human) (UniProt Q93038); assay: cell-based or functional assay
T1 sequence: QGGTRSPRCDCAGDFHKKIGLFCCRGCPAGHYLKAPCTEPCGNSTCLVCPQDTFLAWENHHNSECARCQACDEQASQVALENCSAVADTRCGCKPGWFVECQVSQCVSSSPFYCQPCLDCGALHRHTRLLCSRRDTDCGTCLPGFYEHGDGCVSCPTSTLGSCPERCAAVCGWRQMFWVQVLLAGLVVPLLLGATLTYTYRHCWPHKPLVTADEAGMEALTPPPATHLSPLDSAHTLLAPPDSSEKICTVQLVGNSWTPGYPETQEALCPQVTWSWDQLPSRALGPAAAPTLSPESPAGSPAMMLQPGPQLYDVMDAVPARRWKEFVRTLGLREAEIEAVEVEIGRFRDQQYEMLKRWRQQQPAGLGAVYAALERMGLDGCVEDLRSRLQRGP

[2] = molecular target: human DR3 with the death domain deleted (ΔM339-P417 of SEQ ID NO:1), expressed on CHOK1SV cells (human) (UniProt Q93038); assay: flow cytometry competition: Fab vs TL1A on hDR3-expressing CHO cells (isotype control; IC50 cell: No inhib)
[3] = molecular target: T1, human DR3 (full length, on cells) (human); assay: flow cytometry on CD3/CD28-stimulated human CD4+ T cells (isotype control)
[4] = molecular target: TL1A (R&D Systems) (UniProt O95150); assay: cell-based or functional assay
TL1A (R&D Systems), sequence (O95150 72-251 limits assumed): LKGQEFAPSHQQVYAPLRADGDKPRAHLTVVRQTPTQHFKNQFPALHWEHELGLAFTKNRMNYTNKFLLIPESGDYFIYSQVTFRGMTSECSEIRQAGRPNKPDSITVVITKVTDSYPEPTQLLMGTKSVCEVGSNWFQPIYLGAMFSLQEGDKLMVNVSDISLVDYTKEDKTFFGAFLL

[5] = molecular target: TL1A (R&D Systems) (UniProt O95150); assay: cell-based or functional assay; remark: listed apart in the source

- max % inhibition of TNFalpha, average (n 8) [1]: -1.8%
- max % inhibition of TNFalpha, donor 1 [1]: 1.24%
- max % inhibition of TNFalpha, donor 2 [1]: 0.75%
Substance: 0158 (Hz-aTNP isotype control Fab)
- max percentage inhibition [2]: 10%

- Median Fluorescent Intensity [3]: 222
- Staining index (MFI Ab/MFI Isotype) [3]: 1
Substance: IgG1 isotype (antibody)

- fold response, DR3 reporter, TL1A + 2.5 microg/ml MAb7441 [4]: 3.7 fold
- fold response, DR3 reporter, TL1A + 2.5 microg/ml MAb7441 [5]: 2.3 fold and 2 fold and 1.8 fold
Substance: MAB7441 (R&D Systems), TL1A specific antibody
